From PMC2196875

Molecular target: titin fragment Z9-Z10 as used in isothermal titration calorimetry (human)
Assay: ITC

## untagged obscurin fragment Ob48-Ob49 (domain or fragment)
  Kd: 100 to 200 nM
